Data as given in patent US20080207517A1 (INSTITUT PASTEUR, published 2008).

Biological target: the molecule itself
Assay: gel filtration (Superdex 75) at 10 µM, self-association
Method: The oligomeric states of peptides were determined by filtration as described in Traincard et al., 2003. In brief, 500 μl samples were loaded on a SUPERDEX™ 75 HR 10/30 column equilibrated in 50 mM Tris-HCl pH 8.0 containing 200 mM NaCl and 0.1 mM DDM, at a constant flow rate of 0.4 ml/min. The presence of the DDM detergent was added in the equilibrium buffer to minimize the adsorption in the column and to increase the peptide recovery. The column was calibrated in the same equilibrium buffer with blue dextran 2000 (void volume), dithioerythritol (total volume), bovine serum albumin (67 kDa, Rs=35.2 Å), ovalbumine (43 kDa, Rs=27.5 Å), chymotrypsinogen A (25 kDa, Rs=21.1 Å), ribonuclease A (13.7 kDa, Rs=16.4 Å), cytochrome C (12.4 kDa, Rs=17.7 Å) and aprotinin (6.5 KDa, Rs=13.5 Å).
The antennapedia sequence is a protein transduction domain (PTD) which adopts an alpha-helical amphiphatic structure (Prochiantz, 2000, Curr. Opin. Cell Biol.). […] To examine the effect of N-fusion of the antennapedia peptide on the oligomerization properties of the CC2 and the LZ peptides, the present inventors analyzed peptides containing or not containing the antennapedia sequence at their N-terminus by gel filtration. […]

B1: LZ (WT) (peptide)
peptide: Ac-LKAQADIYKADFQAERHAREKLVEKKEYLQEQLEQLQREFNKL-NH2
notes: Forms a dimer at 10 uM in gel filtration; also called LZ peptide; LZ wild type
- binding result: binds
